Assay results taken from patent US20250355001A1 (GTINVENT, published 2025).
Like-named read-outs stand apart in the source and are kept apart here. Where no end group is shown, it is not given here. The star is where a group is joined. Biotin = O=C1N[C@H]2[C@H](CS[C@H]2CCCCC(=O)*)N1

What was measured:
[1] = target: T1, full length human tau protein 2N4R (hT40) (human, UniProt P10636 1-758); experiment: SPR, summary table
T1 construct: recombinant; also called T441
Procedure: The capture antibody was diluted 1/100 in 10 mM Sodium acetate buffer pH 5.0 and passed over the activated chip surface for a period of at least 420 s. Final ligand immobilisation levels over 12,000 RU were deemed to be satisfactory.
The scAb to be tested was added only to flow cell 2 so that flow cell 1 could act as a control to subtract any interaction with the analyte and the chip surface. […] The multi-cycle protocol was as follows-Three start-up cycles composed of an initial capture, to the desired level, of the scAb to be tested was performed followed by a 30 s injection of glycine buffer pH 2.0 after each cycle to regenerate the chip surface. […] The target was added for a 120 s association period and 420 s dissociation period followed by another regeneration, 30 s injection of glycine buffer pH 2.0 in between each cycle.
The single cycle kinetics protocol was similar and utilised the same level of scAb capture. […] In single cycle kinetics the regeneration step was performed only after the final analyte concentration was added. Binding responses were analysed in Biacore X100 evaluation software and data fitted to a 1:1 binding model to obtain kinetic and affinity characterisation.
Target sequence in this assay (P10636 other isoform, or with tags, fused parts or gaps limits assumed): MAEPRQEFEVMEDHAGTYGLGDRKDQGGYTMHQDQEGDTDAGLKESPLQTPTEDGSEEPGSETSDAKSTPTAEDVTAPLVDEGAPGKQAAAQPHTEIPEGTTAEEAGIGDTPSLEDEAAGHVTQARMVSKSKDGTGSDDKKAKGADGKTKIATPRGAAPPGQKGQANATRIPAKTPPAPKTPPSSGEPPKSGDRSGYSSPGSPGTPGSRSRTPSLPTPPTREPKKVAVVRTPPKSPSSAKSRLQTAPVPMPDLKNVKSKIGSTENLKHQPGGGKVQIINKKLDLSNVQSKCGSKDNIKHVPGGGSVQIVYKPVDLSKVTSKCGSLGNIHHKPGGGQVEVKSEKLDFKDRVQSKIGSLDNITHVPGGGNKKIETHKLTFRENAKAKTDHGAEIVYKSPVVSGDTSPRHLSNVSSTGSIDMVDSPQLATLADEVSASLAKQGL

[2] = target: T1, full length human tau protein 2N4R …; experiment: hT40 ELISA
Target sequence in this assay (P10636 other isoform, or with tags, fused parts or gaps limits assumed): as above

[3] = target: T2, tau parent peptide 319-331 (TSKCGSLGNIHHK); experiment: ELISA on biotinylated peptide over streptavidin
T2 peptide: Biotin-TSKCGSLGNIHHK
Procedure: (§1) Briefly, 5 μg/ml streptavidin (Thermo Fisher) was adsorbed to Nunc 96-well MaxiSorp plates and following incubation at 37° C. for 1 h, the plates were washed as normal and blocked with 2% MPBS. N-terminally biotinylated peptides (Prolmmune Ltd) were added to the plates and incubated for 1 h at 37° C. Subsequently, test scAbs at starting concentrations of 100-500 nM was added and double diluted across the plate for each peptide and incubated for 1 h at 37° C. Rest of the ELISA was conducted as described above and the plates were read at absorbance 450 nm. Immunoreactivity of the scAb of interest was quantified as the % of scAb was bound for each peptide at a chosen concentration (FIG. 15-20).

[4] = target: T1, full length human tau protein 2N4R …; experiment: SPR, scAb captured, tau analyte
How it was run: (§2)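 scAb captured on flow cell 2 of an antibody-coated chip, flow cell 1 as reference; tau analyte injected 120 s association, 420 s dissociation, glycine pH 2.0 regeneration, in multi-cycle or single-cycle kinetics format. Responses fitted to a 1:1 binding model for kinetics and affinity.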
Target sequence in this assay (P10636 other isoform, or with tags, fused parts or gaps limits assumed): as above

[5] = target: T1, full length human tau protein 2N4R …; experiment: hT40 ELISA; remark: listed apart in the source
Target sequence in this assay (P10636 other isoform, or with tags, fused parts or gaps limits assumed): as above

[6] = target: T1, full length human tau protein 2N4R …; experiment: hT40 ELISA; remark: listed apart in the source
[7] = target: T1, full length human tau protein 2N4R …; experiment: hT40 ELISA; remark: listed apart in the source
Procedure: A series of binding ELISA was performed using various truncated versions of the tau protein and 13mer peptide libraries spanning the entire hT40 molecule for mapping the epitopes of anti-tau scAbs (Full list of protein antigens used is given in Table 14). In general, ELISA plates were coated with 1 μg/ml hT40 or dGA or dGAE or other truncated versions of the protein and in the case of biotinylated peptides, plates were coated with 5 μg/ml Streptavidin followed by 1 μg/ml biotinylated peptide. The plates were blocked with 2% MPBS and scAb samples added at desired starting concentrations and double diluted across the plate. Binding was detected using anti-Human C Kappa HRP conjugated secondary antibody and the resulting immunoreaction was developed and absorbance values measured as described above.

[8] = target: T1, full length human tau protein 2N4R …; experiment: Biacore
How it was run: as §2
Target sequence in this assay (P10636 other isoform, or with tags, fused parts or gaps limits assumed): as above

[9] = target: T3, tau parent peptide 355-367 (GSLDNITHVPGGG); experiment: ELISA on biotinylated peptide over streptavidin
T3 peptide: Biotin-GSLDNITHVPGGG
Procedure: as §1

[10] = target: T1, full length human tau protein 2N4R …; experiment: sandwich ELISA, S1D12 mAb capture, scAb detection
How it was run: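 Read-out was HRP anti-HuCk with absorbance at 450 nm (positive above 0.3 after background subtraction) or chemiluminescence, including directly HRP-conjugated scAbs.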
Target sequence in this assay (P10636 other isoform, or with tags, fused parts or gaps limits assumed): as above

[11] = target: T4, dGAE (tau 297-391) (human, UniProt P10636 614-708); experiment: sandwich ELISA, 423 mAb capture, dGAE titrated, scAb at 10 µg/ml
T4 construct: monomer; also called dGAE95

[12] = target: T4, dGAE (tau 297-391); experiment: sandwich ELISA, 423 mAb capture, dGAE titrated, scAb at 10 µg/ml [D00039 Figure 34 cont. F]
[13] = target: T5, aggregated dGAE (human, UniProt P10636 614-708, limits assumed); experiment: sandwich ELISA, S1D12 mAb capture, SDS + Triton treated dGAE aggregates
T5 construct: dGAE aggregated in vitro with DTT, 700 rpm, 37 C, 24 h; also called dGAE aggregates; dGAE agg
Procedure: (§3) For aggregation, 1000 μL 100 μM dGAE+10 μL 10 mM DTT was added to a ‘LoBind’ microfuge tubes and agitated at 700 RPM/37° C. for 24 hours. Resulting sample centrifuged at 17,000×g/4° C. for 60 min and supernatant discarded to remove left over monomer. Pellet resuspended in half the original volume for future experiments and hereafter referred to as ‘aggregates’. 1 μl of aggregates was added to 1 ml of PBS and SDS was added to a final concentration of 1% (w/v). This was left to incubate on lab bench for 1 h with gentle agitation every 15 minutes. In order to neutralize the SDS effect on ELISA, Triton X-100 added to a final concentration of 3% (v/v) and mixed gently by pipetting to prevent any bubble formation. […] Similarly aggregates treated with only SDS or Triton X-100, untreated aggregates, dGAE monomers treated with only SDS or SDS+Titon X-100 were also added to designated wells as controls. All samples were then double diluted across the plate in final volumes of 100 μl. The final column was left with no protein to act as a blank.

[14] = target: T5, aggregated dGAE; experiment: ELISA, direct immobilisation, SDS + Triton treated dGAE aggregates
[15] = target: T6, tau fragment 186-350 (human, UniProt P10636 503-667); experiment: direct ELISA
T6 construct: also called m186-350
T6 sequence (P10636 503-667): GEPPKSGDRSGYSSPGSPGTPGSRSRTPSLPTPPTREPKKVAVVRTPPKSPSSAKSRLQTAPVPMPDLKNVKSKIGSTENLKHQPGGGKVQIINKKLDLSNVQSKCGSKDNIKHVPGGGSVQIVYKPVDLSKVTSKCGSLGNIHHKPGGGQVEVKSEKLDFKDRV

[16] = target: T7, tau parent peptide 367-379 (GNKKIETHKLTFR) (human); experiment: ELISA on biotinylated peptide over streptavidin
T7 peptide: Biotin-GNKKIETHKLTFR

[17] = target: tau fragment 337-368 (human); experiment: direct ELISA
tau fragment 337-368 (human), sequence (peptide, as listed by the source): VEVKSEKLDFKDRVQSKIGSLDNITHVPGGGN

[18] = target: T8, tau fragment 369-390 (human); experiment: direct ELISA
T8 peptide: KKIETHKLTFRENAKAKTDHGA

[19] = target: T9, tau fragment 369-391 (human); experiment: direct ELISA
T9 peptide: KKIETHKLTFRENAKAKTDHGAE

[20] = target: dGA (tau 297-390) (human, UniProt P10636 614-707); experiment: SPR, scAb captured, tau analyte
dGA (tau 297-390), sequence (P10636 614-707 limits assumed): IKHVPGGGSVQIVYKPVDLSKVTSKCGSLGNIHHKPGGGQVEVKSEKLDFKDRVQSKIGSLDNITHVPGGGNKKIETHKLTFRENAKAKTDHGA
How it was run: as §2

[21] = target: T5, aggregated dGAE; experiment: sandwich ELISA, Triton-treated aggregates titrated, S1D12 mAb capture
Procedure: as §3

[22] = target: T4, dGAE (tau 297-391); experiment: sandwich ELISA, 423 mAb capture, dGAE titrated, scAb at 10 µg/ml; remark: listed apart in the source

B1: CE2 scAb (scFv, not shown: small tags and cut ends)
scFv: QVQLQESGPSLVKPSQTLSLTCTVSGFSLTNYPVGWVRQAPGKALEWIGNIENDGSANYASALKSRLSITRDTSKNQVSLSLSSATTEDTAVYYCGREFGGSDGYTYFVDIDYWGPGLLVTVSSEGKSSGASGESKVDDQAVLTQPSSVSKSLGQSVSITCSGSSSNVGYGNYVSWFQQVPGSAPKILIYGATSRASGVPDRFSGSRSGNTATLTITSLQAEDEADYYCASYDGSSSGVFGSGTRLTVLG
notes: scAb
- Kd [1]: 5.03 nM
- EC50 (read off the curve) [2]: ~0.1 µg/mL
- binding result [3]: binds
- Kd [4]: 5.03 nM
- koff [4]: 0.00108 s⁻¹
- kon [4]: 214000 M⁻¹ s⁻¹

B2: 412G11 (scFv)
scAb: QVRLQESGPSLVKPSQTLSLTCTVSGFSLTSYALGWVRQAPGRAPEWIGNIWRGGRIEYNPALKSRLSITRDTSKSQVSLSLSSVTTEDTAVYYCSRSGGDWGPGLLVTVSSEGKSSGASGESKVDDQAVLTQPSSVSGSLGQRVSITCSGSSSNVGYGNYVGWYQQVPGSAPKLLIYGATSRASGVPDRFSGSRSENTATLTISSLQAEDEADYYCASYDRSESVVFGSGTRLTVLG
- EC50 (read off the curve) [5]: ~2 µg/mL
- EC50 (read off the curve) [6]: ~5 µg/mL
- EC50 (read off the curve) [7]: ~2 µg/mL

B3: CA4 scAb (scFv, not shown: small tags and cut ends)
scFv: QVQLQESGPSLVKPSQTLSLTCTVSGFSLTSYSVYWVRQAPGQALEWISIMYASGRVDYNPALKSRLSITRDTSKSQFSLSLSSVTTEDTAVYYCTRGIENWGPGLLVTVSSEGKSSGASGESKVDDDIQVTQSPSSLSASLTERVSITCRTSQSVNNYLSWYQQKPGQAPKLLIYYATRLYTDVPSRFSGSGSGTDYTLTITSLEADDTATYYCLQYDSTPLAFGGGTNVEIK
notes: scAb
- Kd [8]: 3.6 nM
- Kd [1]: 3.61 nM
- binding result [9]: binds
- LoD chemiluminescence detection [10]: 0.37 ng/mL
- LoD colourimetric detection [10]: 6 ng/mL
- Kd [4]: 3.61 nM
- koff [4]: 0.00165 s⁻¹
- kon [4]: 458000 M⁻¹ s⁻¹
- EC50 (read off the curve) [11]: ~0.3 µg/mL

B4: CA9 scAb (scFv, not shown: small tags and cut ends)
scFv: QVQLQESGPSLVKPSQTLSLTCTVSGFSLTSNSVGWVRQAPGKAPEWVAGIDTDGEEGYNPALNSRLSITRDTSKSQVSLSLSSVTSEDTAVYYCGRSYRSDGLAYGYVQAIDYWGPGLLVTVSSEGKSSGASGESKVDDQAVLTQPASVSGSLGQRVSITCSGSFIGISSVGWFQQLPGSGLRTIIVASDGRPSGVPDRFSMSKSGNTATLTISSLQAEDEADYFCGSSDRTQYTGVFGSGTRLTVLG
notes: scAb
- EC50 (read off the curve) [12]: ~0.2 µg/mL
- LoD [13]: 4 ng/mL
- LoD [14]: 40 ng/mL

B5: S1G2 scAb (scFv, not shown: small tags and cut ends)
scFv: QVQLQESGPSLVKPSQTLSLTCTVSGFSLTSNSVGWVRQAPGKAPEWVAGIDTDGEEGYNPALNSRLSITRDTSKSQVSLSLSSVTSEDTAVYYCGRSYRADGLAYGYVQAIDYWGPGLLVTVSSEGKSSGASGESKVDDQAVVTQPSSVSGSLGQRVSITCSGSFIGISSVGWFQQLPGSGLRTIIVASDGRPSGVPDRFSMSKSGNTATLTISSLQAEDEADYFCGSSDRTPYTGVFGSGTRLTVLG
notes: scAb
- binding result [15]: no binding (tested: 25 ug/ml)
- EC50 (read off the curve) [16]: ~10 µg/mL
- Kd [8]: 0.6 nM
- binding result [17]: no binding (tested: 25 ug/ml)
- Kd [1]: 0.17 nM
- EC50 (read off the curve) [18]: ~0.4 µg/mL
- EC50 (read off the curve) [19]: ~0.5 µg/mL
- LoD chemiluminescence detection [10]: 0.12 ng/mL
- LoD colourimetric detection [10]: 2 ng/mL
- LoD [13]: 2 ng/mL
- Kd [20]: 0.447 nM
- koff [20]: 0.00035 s⁻¹
- kon [20]: 783000 M⁻¹ s⁻¹
- Kd [4]: 0.17 nM
- koff [4]: 0.00018 s⁻¹
- kon [4]: 1.06e+06 M⁻¹ s⁻¹
- EC50 (read off the curve) [21]: ~0.05 µg/mL
- LoD [14]: 16 ng/mL

B6: CB3 scAb (scFv, not shown: small tags and cut ends)
scFv: QVQLQESGPSLVKPSQTLSLTCTVSGFSLSSVAVNWVRQAPGKVPEWLGGIISNGGTGYNPALKSRLSITRDTSKSQVSLALTHVTTEDTAVYYCGRGVEWEGSMDYLGPGLLVTVSSEGKSSGSGSETKVDDQSVLTQPSSVSGFLGQRVTITCSGSSSNVGAGSYVGWYQQVPGSGLRILIYGATKRASGLPDRFSGSRSGNTATLTISSLQAEDEADYYCVSYQTDFTLVFGSGTRLTVLG
notes: scAb
- EC50 (read off the curve) [22]: ~0.4 µg/mL
